Measurements as given in doi:10.1101/2024.05.17.594765.
Where a chain is given by its changes, count along the chain named. In names and notes the source's numbering stands. One block for each binder: values may come before it.

Tests used:
[1] = target: T1, C-terminally Halo-tagged full-length zyxin (zyxin-Halo), Q15942; test: force reconstitution TIRF assay; details: chain shown with the change; images were acquired every 1 s; parent: est. 490; read off a plot
T1 chain: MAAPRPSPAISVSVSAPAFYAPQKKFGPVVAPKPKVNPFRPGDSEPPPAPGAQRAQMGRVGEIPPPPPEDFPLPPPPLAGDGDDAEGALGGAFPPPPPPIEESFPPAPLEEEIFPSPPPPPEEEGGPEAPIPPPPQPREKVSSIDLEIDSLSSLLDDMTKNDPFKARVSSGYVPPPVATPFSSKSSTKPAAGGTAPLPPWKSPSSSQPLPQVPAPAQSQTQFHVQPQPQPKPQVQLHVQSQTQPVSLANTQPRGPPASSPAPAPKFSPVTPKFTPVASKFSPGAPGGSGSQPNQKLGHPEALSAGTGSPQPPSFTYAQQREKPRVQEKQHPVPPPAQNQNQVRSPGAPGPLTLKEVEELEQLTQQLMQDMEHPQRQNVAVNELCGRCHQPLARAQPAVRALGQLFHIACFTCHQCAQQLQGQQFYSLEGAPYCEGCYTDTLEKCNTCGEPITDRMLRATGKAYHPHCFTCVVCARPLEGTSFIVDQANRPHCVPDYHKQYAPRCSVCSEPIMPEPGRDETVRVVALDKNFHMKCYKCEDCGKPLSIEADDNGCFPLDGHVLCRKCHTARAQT

[2] = target: T2, zyxin mutant deficient in recruiting VASP, F(75, 97, 108, 118)A, Halo-tagged, Q15942; test: force reconstitution TIRF assay; details: chain shown with the change; images were acquired every 1 s; parent: est. 490; read off a plot
T2 chain: T1 chain with F71A, F93A, F104A, F114A

other: Number of Binding Events (mean) [1]: 180
B1: C-terminally Halo-tagged VASP (VASP-Halo), P50552 L226A; I231A; L235A; R273E; R274E; R275E; K276E (protein)
chain: SETVICSSRATVMLYDDGNKRWLPAGTGPQAFSRVQIYHNPTANSFRVVGRKMQPDQQVVINCAIVRGVKYNQATPNFHQWRDARQVWGLNFGSKEDAAQFAAGMASALEALEGGGPPPPPALPTWSVPNGPSPEEVEQQKRQQPGPSEHIERRVSNAGGPPAPPAGGPPPPPGPPPPPGPPPPPGLPPSGVPAAAHGAGGGPPPAPPLPAAQGPGGGGAGAPGAAAAAAGAKARKVSKQEEASGGPTAPKAESGRSGGGGLMEEMNAMLAEEEEATQVGEKTPKDESANQEEPEARVPAQSESVRRPWEKNSTTLPRMKSSSSVTTSETQPCTPSSSDYSDLQRVKQELLEEVKKELQKVKEEIIEAFVQELRKRGSP

other: Number of Binding Events (mean) [2]: 30
B2: m6; m1 VASP:L226A; VASP:I231A; VASP:L235A; VASP:R273E; VASP:R274E; VASP:R275E; VASP:K276E; zyxin:F75A; zyxin:F97A; zyxin:F108A; zyxin:F118A (protein)
chain: B1 chain
